Like-named read-outs stand apart in the source and are kept apart here.
What was measured:
[1] = test system: A549 (human lung adenocarcinoma) cells; assay: Cytotoxicity of parent compound versus PDC, tumor cells (Example 8); assay type: cell-based; conditions: increasing concentrations; for Cytotoxic potency to A549 cells versus NHDF cells (selectivity): FIG. 3
Method: (§1) A549 (human lung adenocarcinoma) cells and normal human dermal fibroblasts (NHDF) were plated in 96 well dishes overnight. […] The difference between the cytotoxicity of the PDC molecule for tumor cells and that of the normal cells may have indicated a potential to improve the parent molecules therapeutic index.

[2] = test system: normal human dermal fibroblasts (NHDF); assay: Cytotoxicity of parent compound versus PDC, normal cells (Example 8); assay type: cell-based; conditions: increasing concentrations
Method: as §1

[3] = test system: NHDF (normal human dermal fibroblasts); assay: cells; assay type: cell-based
[4] = assay type: in vivo, mice
Method: Listed in Table 5 are the doses administered to the mice, and how many mice were alive after treatment (“3/3” indicates 3 out of 3 mice were alive). […] MTD for CLR 1865 was between 5 and 10 mg/kg.

[5] = test system: A549 (human lung adenocarcinoma); assay: cells; assay type: cell-based; conditions: various concentrations; A549 and NHDF; FIG. 8
[6] = test system: HCT 116 cells (human colon cancer); assay type: in vivo; set-up: dose or concentration left out as unconfirmed; conditions: HCT 116 tumor model; three doses; FIG. 9
A375 and A549 cells = assay: Levels of FLV3 in cell lysate and growth media (LC/MS); assay type: cell-based, human
Method: FIG. 11 is a graph of concentration versus time for FLV3 detected in the cytosol (normalized to the cytosolic volume) in A375 (human melanoma) and A549 (human lung adenocarcinoma) cell lines.
The levels of FLV3 in cell lysate and growth media were measured using LC/MS. […] Levels of intracellular FLV3 appeared to plateau at 24 hours, while extracellular levels of FLV3 continued to increase.

Method for Plasma stability, human: (§2) A small amount of molecule was exposed to plasma, and the plasma was then analyzed via HPLC or MS to determine if the molecule was degraded.
Method for Plasma stability, mouse: as §2

SMILES	Cytotoxic potency to A549 cells versus NHDF cells (selectivity) [1]	Cytotoxic potency in A549 cells relative to the parent molecule [1]	Cytotoxic effect on NHDF cells [2]	Mice alive after treatment ([4]; Dose 0.1 mg/kg)	Mice alive after treatment ([4]; Dose 0.25 mg/kg)	Mice alive after treatment ([4]; Dose 0.5 mg/kg)	Mice alive after treatment ([4]; Dose 1.0 mg/kg)	Mice alive after treatment ([4]; Dose 5.0 mg/kg)	Mice alive after treatment ([4]; Dose 10.0 mg/kg)	Tolerability compared to FLV3 alone ([4]; mice)	Human half-life (Plasma stability, human)	Human plasma stability (Plasma stability, human)	Mouse half-life (Plasma stability, mouse; mouse plasma)	other results
COc1ccc([C@]23Oc4cc(OCCCCN)cc(OC)c4[C@@]2(O)[C@@H](O)[C@@H](C(=O)O)[C@@H]3c2ccccc2)cc1 [FLV1, reference compound]	near equal potency to the A549 cells as it did to the NHDF cells													
COc1ccc([C@@]23Oc4cc(OCCCCNC(=O)OCC(C)(C)SSCCCCCCCCCCCCCCCCCCOP(=O)([O-])OCC[N+](C)(C)C)cc(OC)c4[C@]2(O)[C@H](O)[C@H](C(=O)O)[C@H]3c2ccccc2)cc1 [CLR 1865]	selectivity for the A549 cells	near similar potency to the parent molecule in A549 cells	almost no effect on NHDF cells until the highest concentrations	3/3	3/3	3/3	3/3	3/3	2/3	excellent improvement in tolerability compared to FLV3 alone	>6.67 h	excellent human plasma stability	3.32 h	Therapeutic Index (TI) (value in parentheses) ([3]; from the NHDF value in parentheses): 37.3; Therapeutic Index (TI) ([3]; not defined, equals NHDF IC50 over lowest tumor line IC50): 11.64; In vivo therapeutic index ([4]; mice): ≥ 12.5; Time stable in mouse plasma (Plasma stability, mouse; mouse plasma): 3.3 h
COC(=O)[C@H]1[C@@H](O)[C@@]2(O)c3c(OC)cc(OCCCCNC(=O)OCC(C)(C)SSCCCCCCCCCCCCCCCCCCOP(=O)([O-])OCC[N+](C)(C)C)cc3O[C@@]2(c2ccc(OC)cc2)[C@@H]1c1ccccc1 [CLR 1852]	selectivity for the A549 cells	near similar potency to the parent molecule in A549 cells	almost no effect on NHDF cells until the highest concentrations	3/3	3/3	3/3	3/3	3/3	3/3	excellent improvement in tolerability compared to FLV3 alone	>6.67 h	excellent human plasma stability	>6.67 h	Cytotoxic potency compared to FLV3 alone [5]: modest loss in potency compared to FLV3 alone; Therapeutic Index (TI) [3]: 360; Therapeutic Index (TI) (value in parentheses) [3]: 915; Maximum tolerated dose (MTD) ([4]; mice): did not achieve a maximum tolerated dose; In vivo therapeutic index ([4]; mouse, in vivo): at least 25; Time from which tumor volume was reduced compared to vehicle [6]: around 27 days; Time at which levels of intracellular FLV3 plateau (A375 and A549 cells): 24 h; Levels of FLV3 in the growth media (A375 and A549 cells; after 24 hours): Moderate levels; Levels of FLV3 in the cell lysate (A375 and A549 cells; after 24 hours, FIG. 11): high levels; Time stable in plasma (Plasma stability, mouse; plasma, species not stated): at least 7 hours

From patent US12503479B2, “Phospholipid-flavagline conjugates and methods of using the same for targeted cancer therapy” (Cellectar Biosciences, Inc., priority 2018, dated 2025)
